We go through three molecules from paper PMC9881156, “POT-3 preferentially binds the terminal DNA-repeat on the telomeric G-overhang”.

The target in series [1] is T1, POT-2 (Caenorhabditis elegans, UniProt O45595 1-251).
T1 sequence: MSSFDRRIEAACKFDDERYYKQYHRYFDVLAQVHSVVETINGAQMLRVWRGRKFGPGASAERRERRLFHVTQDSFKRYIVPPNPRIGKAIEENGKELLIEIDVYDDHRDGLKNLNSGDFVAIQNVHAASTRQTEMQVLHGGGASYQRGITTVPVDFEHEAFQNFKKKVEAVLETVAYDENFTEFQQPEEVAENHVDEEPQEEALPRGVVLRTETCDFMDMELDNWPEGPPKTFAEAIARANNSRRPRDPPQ
Description: EMSA. The conditions noted are these: apparent, EMSA: 20 mM Tris-HCl pH 8.0, 50 mM NaCl, 1 mM MgCl2, 5 mM DTT, 50 ug/ml BSA, 4% Ficoll 400, on ice 10 min, competition and S4 Kd: same salts with 0.001% ….

Series [2] addresses T2, POT-3 (Caenorhabditis elegans, UniProt G5EFG7 1-215).
T2 sequence: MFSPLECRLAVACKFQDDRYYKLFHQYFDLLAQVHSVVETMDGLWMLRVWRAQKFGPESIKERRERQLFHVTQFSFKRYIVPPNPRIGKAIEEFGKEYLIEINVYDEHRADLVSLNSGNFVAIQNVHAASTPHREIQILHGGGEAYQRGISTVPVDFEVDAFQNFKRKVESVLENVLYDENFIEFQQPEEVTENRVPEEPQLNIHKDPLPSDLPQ
Kind of series: EMSA. The conditions noted are these: apparent, EMSA: 20 mM Tris-HCl pH 8.0, 50 mM NaCl, 1 mM MgCl2, 5 mM DTT, 50 ug/ml BSA, 4% Ficoll 400, on ice 10 min, competition and S4 Kd: same salts with 0.001% …. Background: A gel shift assay detects complexes by their altered migration in electrophoresis.

For series [3], the target named is T1, POT-2. Description: analytical gel filtration; 1 protein per DNA; 500 mM NaCl; EMSA: 20 mM Tris-HCl pH 8.0, 50 mM NaCl, 1 mM MgCl2, 5 mM DTT, 50 ug/ml BSA, 4% Ficoll 400, on ice 10 min; competition and S4 Kd: same salts with 0.001% Tween-20, room temperature; gel filtration: 20 mM Tris-HCl pH 8.0, 500 mM NaCl, 10 mM DTT, 10% glycerol (binding). Particulars: protein: recombinant; tags: 6xHis.

Series [4] deals with T2, POT-3. The description is as above. Particulars: protein: recombinant; tags: 6xHis.
In series [5] the target is T1, POT-2. Description: analytical gel filtration; 3 proteins per DNA; 500 mM NaCl; EMSA: 20 mM Tris-HCl pH 8.0, 50 mM NaCl, 1 mM MgCl2, 5 mM DTT, 50 ug/ml BSA, 4% Ficoll 400, on ice 10 min; competition and S4 Kd: same salts with 0.001% Tween-20, room temperature; gel filtration: 20 mM Tris-HCl pH 8.0, 500 mM NaCl, 10 mM DTT, 10% glycerol (binding). Particulars: protein: recombinant; tags: 6xHis.

Series [6] addresses T2, POT-3. Described as above. Particulars: protein: recombinant; tags: 6xHis.

For the molecule “fragment 7 / 12mer, (TTAGGC)2 3' overhang”, the Kd in the series with POT-2 [1] (on ice) worked out at 0.1 nM; with POT-2 [1] (room temperature), 7.2 nM; in the series with POT-3 [2] (on ice) it was 0.16 nM; in the series with POT-3 [2] (room temperature) it was 5 nM.

B1: (TTAGGC)2 ssDNA (ssDNA)
DNA: TTAGGCTTAGGC
For the molecule B1, the binding result with POT-2 [3] and with POT-3 [4] was “binds” throughout.

B2: (TTAGGC)4 ssDNA (ssDNA)
DNA: TTAGGCTTAGGCTTAGGCTTAGGC
For B2, the binding result with POT-2 [5] and with POT-3 [6] was “binds” each time.
